Data from patent publication US20260109761A1 (IP2IPO INNOVATIONS, published 2026).
Where a chain is given by its changes, count along the chain named.

B1: H2_T63Y_VL-par (antibody, V domains shown)
VH: QVQLVESGGGVVQPGRSLRLSCAASGFTFSDYGMHWVRQAPGKGLEWVAYISSGGTTIYYADYVKGRFTISRDNSKNTLYLQMNSLRAEDTAVYYCARWTNLYAMDYWGQGTTVTVSS
VL: DIVLTQSPDSLAVSLGERATINCRASKSVSTSGYSYMHWYQQKPGQPPKFLIYLASNLESGVPDRFSGSGSGTDFTLTISSLQAEDVAVYYCQHSREVPYTFGGGTKVEIKR
notes: Fc null human IgG1 / human kappa
B2: H3_M105P_L2 (antibody, V domains shown)
VH: B1 VH with Y63T, M105P
VL: B1 VL with L58K
notes: as for B1
B3: H2_Y60K_L2 (antibody, V domains shown)
VH: B1 VH with Y60K, Y63T
VL: B1 VL with L58K
notes: as for B1
B4: H3_W99H_VL-par (antibody, V domains shown)
VH: B1 VH with Y63T, W99H
VL: B1 VL
notes: as for B1

biological target: T1, huZIP12-ECD-GST (human, UniProt Q504Y0 24-202); assay: HTRF competition: unlabelled antibody against Tb-labelled 51B12-parent on hZIP12-ECD-GST, detected with anti-GST-XL665
T1 construct: also called hZIP12-ECD-GST; human ZIP12-ECD-GST; not shown: glutathione S-transferase (GST) tag
T1 sequence (Q504Y0 24-202): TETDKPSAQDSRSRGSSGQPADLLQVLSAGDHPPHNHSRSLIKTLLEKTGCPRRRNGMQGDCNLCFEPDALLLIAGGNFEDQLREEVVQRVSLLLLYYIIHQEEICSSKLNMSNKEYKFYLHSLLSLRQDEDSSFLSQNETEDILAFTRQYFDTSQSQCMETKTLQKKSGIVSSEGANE
Description: Homogeneous Time Resolved Fluorescence (HTRF) assays were used to analyse the antibodies. A checkerboard assay was performed to validate the binding of the terbium labeled-antibody with hZIP12-ECD-GST. Serial dilutions (starting at 1000 ng/ml, semi-log dilutions) of Terbium-labeled 51B12-parent were incubated with serial dilutions of hZIP12-ECD-GST (starting at 5000 ng/ml, semi-log dilutions) followed by incubation with anti-GST-XL665. After excitation (320 nm), emission signals were obtained and HTRF ratio was calculated (665 nm/615 nm, Panel A). Signal/background ratios (S/B) were calculated from the HTRF ratios (0 ng/ml hZIP12-ECD-GST as background signal) and plotted against the Tb-51B12-parent concentration. The combinations 500 ng/ml hZIP12-ECD-GST+50 ng Tb-Ab, 150 ng/ml hZIP12-ECD-GST+50 ng Tb-Ab and 50 ng/ml hZIP12-ECD-GST+50 ng Tb-Ab were chosen as range for the competition assay. For the HTRF assay, 150 ng/ml hZIP12-ECD-GST+30 ng/ml Tb-51B12 was selected.

Binder | IC50 (read off the curve) [µg/mL]
B1 | ~0.2
B2 | ~0.2
B3 | ~0.06
B4 | ~0.06
